Some results are limits rather than exact numbers.

The target of data set [1] is recombinant human TLR4 protein (human) (UniProt O00206). As to the kind of experiment: SPR; Biacore T200; TLR4 immobilised on CM5 chip (6000 RU); HpGroES proteins flowed at 7.8125-1000 nM, 30 μl/min, 25 °C; PBS with 0.05% P20; Kd from saturation curves (GraphPad Prism). A general note: Surface plasmon resonance follows binding to a sensor surface in real time, without labels.

Data set [2] has as its target T1, recombinant human TLR4 protein (human, UniProt O00206 24-631).
T1 construct: Toll-like receptor 4, human, recombinant protein from R&D Systems; R&D Systems' recombinant human TLR4 is, as far as recalled, the extracellular domain with a His tag (some products are a complex with MD-2); also called Toll-like receptor 4; source: bought: R&D Systems
Described as above. Conditions: both partners purified.

Data set [3] deals with the molecule itself. The experiment in a line: SEC; HiLoad 16/600 Superdex 200 pg; 150 mM NaCl, 25 mM potassium phosphate pH 7.4, 1 mM DTT, 0.3% glycerol; 2 ml/min. Background: In gel filtration, larger molecules generally elute earlier.

T1 sequence (O00206 24-631): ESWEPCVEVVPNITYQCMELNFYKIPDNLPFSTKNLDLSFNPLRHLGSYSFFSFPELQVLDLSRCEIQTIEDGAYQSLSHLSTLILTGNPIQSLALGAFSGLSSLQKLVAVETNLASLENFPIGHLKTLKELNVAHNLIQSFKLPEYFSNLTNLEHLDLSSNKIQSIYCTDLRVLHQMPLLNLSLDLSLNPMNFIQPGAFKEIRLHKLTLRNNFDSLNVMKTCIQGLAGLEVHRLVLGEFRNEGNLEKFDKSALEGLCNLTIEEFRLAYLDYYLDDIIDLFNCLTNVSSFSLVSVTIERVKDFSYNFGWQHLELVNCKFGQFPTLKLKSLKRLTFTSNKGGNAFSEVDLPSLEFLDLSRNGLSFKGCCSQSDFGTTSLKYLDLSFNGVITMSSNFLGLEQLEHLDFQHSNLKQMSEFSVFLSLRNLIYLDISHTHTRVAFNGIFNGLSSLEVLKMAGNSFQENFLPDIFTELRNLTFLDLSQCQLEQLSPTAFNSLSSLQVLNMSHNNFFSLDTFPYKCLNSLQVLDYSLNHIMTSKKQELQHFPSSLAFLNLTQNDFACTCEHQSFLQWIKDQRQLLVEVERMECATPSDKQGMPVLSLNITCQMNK
recombinant human TLR4 protein (human), sequence (O00206 24-631): as above

Broadly, the Kd is the equilibrium constant for the complex coming apart. With “HpGroES H100A mutant (from UniProt P0A0R3 1-118) (natural protein)”, the Kd in data set [1] is over 1000 nM.

B1: Helicobacter pylori GroES (HpGroES), wild type (natural protein)
chain: MKFQPLGERVLVERLEEENKTSSGIIIPDNAKEKPLMGVVKAVSHKISEGCKCVKEGDVIAFGKYKGAEIVLDGTEYMVLELEDILGIVGSGSCCHTGNHDHKHAKEHEACCHDHKKH
notes: GroES (HspA) of Helicobacter pylori; domain A plus C-terminal domain B (residues 91-118); Protein was dialysed with 4 molar equivalents of NiSO4 before size exclusion (nickel-loaded); also called WT; heat shock protein (HSP) A; source: E. coli M15 (pQE30), purified (Ni2+-chelating Sepharose, Superdex 200 size exclusion)
In general, stoichiometry N refers to a count of units in the complex or per binding partner. As to B1, the Kd in data set [2] worked out at 100 nM. For the same molecule, the “stoichiometry N” value in data set [3] came to 7.

B2: HpGroES H108A mutant (natural protein, Helicobacter pylori, UniProt P0A0R3 1-118, looked up)
chain: MKFQPLGERVLVERLEEENKTSSGIIIPDNAKEKPLMGVVKAVSHKISEGCKCVKEGDVIAFGKYKGAEIVLDGTEYMVLELEDILGIVGSGSCCHTGNHDHKHAKEAEACCHDHKKH
notes: GroES (HspA) of Helicobacter pylori with a point mutation in domain B; Same construct as m1 with the mutation; nickel-loaded during purification; source: E. coli M15 (pQE30), purified (Ni2+-chelating Sepharose, Superdex 200 size exclusion)
Turning to B2, the Kd in data set [2] is over 1000 nM. Further, the “stoichiometry N” value in data set [3] came out at 7.

B3: HpGroES H104A mutant (natural protein, Helicobacter pylori, UniProt P0A0R3 1-118, looked up)
chain: MKFQPLGERVLVERLEEENKTSSGIIIPDNAKEKPLMGVVKAVSHKISEGCKCVKEGDVIAFGKYKGAEIVLDGTEYMVLELEDILGIVGSGSCCHTGNHDHKAAKEHEACCHDHKKH
notes: as for B2
Take B3: the Kd in data set [2] was found to be 100 nM. Besides, the “stoichiometry N” value in data set [3] came to 7.

B4: HpGroES H96A mutant (natural protein, Helicobacter pylori, UniProt P0A0R3 1-118, looked up)
chain: MKFQPLGERVLVERLEEENKTSSGIIIPDNAKEKPLMGVVKAVSHKISEGCKCVKEGDVIAFGKYKGAEIVLDGTEYMVLELEDILGIVGSGSCCATGNHDHKHAKEHEACCHDHKKH
notes: as for B2
Turning to B4, the Kd in data set [2] was determined as 110 nM. Further, in data set [3], the “stoichiometry N” value came to 7.

B5: HpGroES H100A mutant (natural protein, Helicobacter pylori, UniProt P0A0R3 1-118, looked up)
chain: MKFQPLGERVLVERLEEENKTSSGIIIPDNAKEKPLMGVVKAVSHKISEGCKCVKEGDVIAFGKYKGAEIVLDGTEYMVLELEDILGIVGSGSCCHTGNADHKHAKEHEACCHDHKKH
notes: as for B2
On to B5, for which the “stoichiometry N” value in data set [3] worked out at 7.

B6: HpGroES H102A mutant (natural protein, Helicobacter pylori, UniProt P0A0R3 1-118, looked up)
chain: MKFQPLGERVLVERLEEENKTSSGIIIPDNAKEKPLMGVVKAVSHKISEGCKCVKEGDVIAFGKYKGAEIVLDGTEYMVLELEDILGIVGSGSCCHTGNHDAKHAKEHEACCHDHKKH
notes: as for B2
Turning to B6, the Kd in data set [2] is over 1000 nM. For the same molecule, the “stoichiometry N” value in data set [3] is 7.

B7: HpGroES H118A mutant (natural protein, Helicobacter pylori, UniProt P0A0R3 1-118, looked up)
chain: MKFQPLGERVLVERLEEENKTSSGIIIPDNAKEKPLMGVVKAVSHKISEGCKCVKEGDVIAFGKYKGAEIVLDGTEYMVLELEDILGIVGSGSCCHTGNHDHKHAKEHEACCHDHKKA
notes: as for B2
Take B7: the Kd in data set [2] is over 1000 nM. Moreover, the “stoichiometry N” value in data set [3] turned out to be 7.

B8: HpGroES H115A mutant (natural protein, Helicobacter pylori, UniProt P0A0R3 1-118, looked up)
chain: MKFQPLGERVLVERLEEENKTSSGIIIPDNAKEKPLMGVVKAVSHKISEGCKCVKEGDVIAFGKYKGAEIVLDGTEYMVLELEDILGIVGSGSCCHTGNHDHKHAKEHEACCHDAKKH
notes: as for B2
Regarding B8, the Kd in data set [2] was found to be 150 nM. Moreover, the “stoichiometry N” value in data set [3] amounted to 7.

B9: HpGroES H113A mutant (natural protein, Helicobacter pylori, UniProt P0A0R3 1-118, looked up)
chain: MKFQPLGERVLVERLEEENKTSSGIIIPDNAKEKPLMGVVKAVSHKISEGCKCVKEGDVIAFGKYKGAEIVLDGTEYMVLELEDILGIVGSGSCCHTGNHDHKHAKEHEACCADHKKH
notes: as for B2
As to B9, the Kd in data set [2] is over 1000 nM. In addition, in data set [3], the “stoichiometry N” value is 7.
